Experimental data reported in the supplement of paper PMC10567573.

B1: ZNF449 (parent)
chain: TLHQRTHTEERPFKCNYCGKSFRQ

Variants of: B1
Experiment: protein stability index of a GFP-peptide fusion (GPS, HEK-293T) (PSI 1-6); higher = more stable
Conditions: c terminus: a fixed tail appended
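Note: lentivirally expressed fusions sorted by FACS into six bins by GFP to DsRed ratio, PSI derived from sequencing read proportions per bin multiplied by bin number.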

Variant | protein stability index
TLHQRTHTEERSFKCNYCGKSFRQ [P12S] | 2.52
TLHQRTHTEERHFKCNYCGKSFRQ [P12H] | 2.32
TLHQRTHTEERCFKCNYCGKSFRQ [P12C] | 2.94
TLHQRTHTEERLFKCNYCGKSFRQ [P12L] | 3.05
TLHQRTHTEERIFKCNYCGKSFRQ [P12I] | 3.29
TLHQRTHTEERFFKCNYCGKSFRQ [P12F] | 2.25
TLHQRTHTEERYFKCNYCGKSFRQ [P12Y] | 2.77
TLHQRTHTEERGFKCNYCGKSFRQ [P12G] | 2.52
TLHQRTHTEERTFKCNYCGKSFRQ [P12T] | 2.26
TLHQRTHTEERWFKCNYCGKSFRQ [P12W] | 2.89
TLHQRTHTEERVFKCNYCGKSFRQ [P12V] | 2.57
TLHQRTHTEERNFKCNYCGKSFRQ [P12N] | 2.41
TLHQRTHTEERKFKCNYCGKSFRQ [P12K] | 2.89
TLHQRTHTEERMFKCNYCGKSFRQ [P12M] | 2.45
TLHQRTHTEERRFKCNYCGKSFRQ [P12R] | 2.21
TLHQRTHTEEREFKCNYCGKSFRQ [P12E] | 3.26
TLHQRTHTEERDFKCNYCGKSFRQ [P12D] | 3.12
TLHQRTHTEERAFKCNYCGKSFRQ [P12A] | 2.81
TLHQRTHTEERQFKCNYCGKSFRQ [P12Q] | 2.79
TLHQRTHTEERPFKCNYIGKSFRQ [C18I] | 2.92
TLHQRTHTEERPFKCNYPGKSFRQ [C18P] | 2.91
TLHQRTHTEERPFKCNYMGKSFRQ [C18M] | 2.72
TLHQRTHTEERPFKCNYTGKSFRQ [C18T] | 3.4
TLHQRTHTEERPFKCNYHGKSFRQ [C18H] | 2.96

Variant | protein stability index
TLHQRTHTEERPFKCNYQGKSFRQ [C18Q] | 2.26
TLHQRTHTEERPFKCNYRGKSFRQ [C18R] | 3.38
TLHQRTHTEERPFKCNYSGKSFRQ [C18S] | 3.17
TLHQRTHTEERPFKCNYVGKSFRQ [C18V] | 2.12
TLHQRTHTEERPFKCNYEGKSFRQ [C18E] | 3.78
TLHQRTHTEERPFKCNYWGKSFRQ [C18W] | 2.33
TLHQRTHTEERPFKCNYLGKSFRQ [C18L] | 2.61
TLHQRTHTEERPFKCNYGGKSFRQ [C18G] | 3.02
TLHQRTHTEERPFKCNYFGKSFRQ [C18F] | 2.85
TLHQRTHTEERPFKCNYDGKSFRQ [C18D] | 3.48
TLHQRTHTEERPFKCNYKGKSFRQ [C18K] | 3.12
TLHQRTHTEERPFKCNYNGKSFRQ [C18N] | 3.68
TLHQRTHTEERPFKCNYYGKSFRQ [C18Y] | 2.43
TLHQRTHTEERPFKCNYAGKSFRQ [C18A] | 3.61
TLHQRTHTEERPFKCNDCGKSFRQ [Y17D] | 2.09
TLHQRTHTEERPFKCNTCGKSFRQ [Y17T] | 2.62
TLHQRTHTEERPFKCNICGKSFRQ [Y17I] | 2.14
TLHQRTHTEERPFKCNCCGKSFRQ [Y17C] | 2
TLHQRTHTEERPFKCNWCGKSFRQ [Y17W] | 2.61
TLHQRTHTEERPFKCNFCGKSFRQ [Y17F] | 2.22
TLHQRTHTEERPFKCNVCGKSFRQ [Y17V] | 2.32
TLHQRTHTEERPFKCNACGKSFRQ [Y17A] | 1.93
TLHQRTHTEERPFKCNNCGKSFRQ [Y17N] | 3.21
TLHQRTHTEERPFKCNQCGKSFRQ [Y17Q] | 3.16

Variant | protein stability index
TLHQRTHTEERPFKCNLCGKSFRQ [Y17L] | 2.15
TLHQRTHTEERPFKCNPCGKSFRQ [Y17P] | 2.98
TLHQRTHTEERPFKCNMCGKSFRQ [Y17M] | 2.4
TLHQRTHTEERPFKCNKCGKSFRQ [Y17K] | 2.67
TLHQRTHTEERPFKCNECGKSFRQ [Y17E] | 2.3
TLHQRTHTEERPFKCNRCGKSFRQ [Y17R] | 2.92
TLHQRTHTEERPFKCNSCGKSFRQ [Y17S] | 2.55
TLHQRTHTEERPFKCNYCGNSFRQ [K20N] | 2.37
TLHQRTHTEERPFKCNYCGHSFRQ [K20H] | 1.91
TLHQRTHTEERPFKCNYCGLSFRQ [K20L] | 2.07
TLHQRTHTEERPFKCNYCGQSFRQ [K20Q] | 1.82
TLHQRTHTEERPFKCNYCGCSFRQ [K20C] | 1.86
TLHQRTHTEERPFKCNYCGDSFRQ [K20D] | 2.83
TLHQRTHTEERPFKCNYCGMSFRQ [K20M] | 2.79
TLHQRTHTEERPFKCNYCGWSFRQ [K20W] | 1.88
TLHQRTHTEERPFKCNYCGISFRQ [K20I] | 2.1
TLHQRTHTEERPFKCNYCGTSFRQ [K20T] | 2.58
TLHQRTHTEERPFKCNYCGRSFRQ [K20R] | 3.28
TLHQRTHTEERPFKCNYCGASFRQ [K20A] | 1.97
TLHQRTHTEERPFKCNYCGFSFRQ [K20F] | 1.78
TLHQRTHTEERPFKCNYCGGSFRQ [K20G] | 1.61
TLHQRTHTEERPFKCNYCGPSFRQ [K20P] | 2.31
TLHQRTHTEERPFKCNYCGSSFRQ [K20S] | 2.12
TLHQRTHTEERPFKCNYCGESFRQ [K20E] | 1.79

Variant | protein stability index
TLHQRTHTEERPFKCNYCGVSFRQ [K20V] | 2.41
TLHQRTHTEERPFKCNYCGYSFRQ [K20Y] | 1.9
TLHQRTHTEEKPFKCNYCGKSFRQ [R11K] | 2.5
TLHQRTHTEEWPFKCNYCGKSFRQ [R11W] | 2.09
TLHQRTHTEEPPFKCNYCGKSFRQ [R11P] | 2.12
TLHQRTHTEEIPFKCNYCGKSFRQ [R11I] | 2.08
TLHQRTHTEELPFKCNYCGKSFRQ [R11L] | 2.39
TLHQRTHTEEFPFKCNYCGKSFRQ [R11F] | 1.92
TLHQRTHTEENPFKCNYCGKSFRQ [R11N] | 2.42
TLHQRTHTEEYPFKCNYCGKSFRQ [R11Y] | 2.11
TLHQRTHTEEQPFKCNYCGKSFRQ [R11Q] | 2.95
TLHQRTHTEEHPFKCNYCGKSFRQ [R11H] | 2.53
TLHQRTHTEEVPFKCNYCGKSFRQ [R11V] | 2.54
TLHQRTHTEEMPFKCNYCGKSFRQ [R11M] | 2.25
TLHQRTHTEETPFKCNYCGKSFRQ [R11T] | 2.33
TLHQRTHTEESPFKCNYCGKSFRQ [R11S] | 2.25
TLHQRTHTEERPMKCNYCGKSFRQ [F13M] | 2.18
TLHQRTHTEERPSKCNYCGKSFRQ [F13S] | 2.26
TLHQRTHTEERPIKCNYCGKSFRQ [F13I] | 3.01
TLHQRTHTEERPNKCNYCGKSFRQ [F13N] | 3.54
TLHQRTHTEERPTKCNYCGKSFRQ [F13T] | 3.78
TLHQRTHTEERPLKCNYCGKSFRQ [F13L] | 2.07
